Test results taken from US20230293649A1 (BIOVENTURES, published 2023).

T1: N-cadherin, P19022
T1 chain: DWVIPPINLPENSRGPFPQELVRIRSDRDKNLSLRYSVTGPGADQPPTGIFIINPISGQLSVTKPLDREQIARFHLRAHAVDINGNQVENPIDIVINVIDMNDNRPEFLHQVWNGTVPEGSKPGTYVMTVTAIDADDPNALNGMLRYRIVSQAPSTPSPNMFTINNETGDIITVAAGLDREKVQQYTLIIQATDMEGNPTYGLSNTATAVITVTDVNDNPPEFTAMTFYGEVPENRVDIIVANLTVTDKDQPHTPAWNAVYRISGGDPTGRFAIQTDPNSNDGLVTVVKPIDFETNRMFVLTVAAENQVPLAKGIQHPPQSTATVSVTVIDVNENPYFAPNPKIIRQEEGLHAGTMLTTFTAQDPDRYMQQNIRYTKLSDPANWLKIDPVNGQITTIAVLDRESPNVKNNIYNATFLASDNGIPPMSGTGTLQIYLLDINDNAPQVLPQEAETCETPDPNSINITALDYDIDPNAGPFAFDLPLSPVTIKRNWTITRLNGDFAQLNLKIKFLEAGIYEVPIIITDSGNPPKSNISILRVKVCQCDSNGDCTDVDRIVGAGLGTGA

T2: E-cadherin, P12830
T2 chain: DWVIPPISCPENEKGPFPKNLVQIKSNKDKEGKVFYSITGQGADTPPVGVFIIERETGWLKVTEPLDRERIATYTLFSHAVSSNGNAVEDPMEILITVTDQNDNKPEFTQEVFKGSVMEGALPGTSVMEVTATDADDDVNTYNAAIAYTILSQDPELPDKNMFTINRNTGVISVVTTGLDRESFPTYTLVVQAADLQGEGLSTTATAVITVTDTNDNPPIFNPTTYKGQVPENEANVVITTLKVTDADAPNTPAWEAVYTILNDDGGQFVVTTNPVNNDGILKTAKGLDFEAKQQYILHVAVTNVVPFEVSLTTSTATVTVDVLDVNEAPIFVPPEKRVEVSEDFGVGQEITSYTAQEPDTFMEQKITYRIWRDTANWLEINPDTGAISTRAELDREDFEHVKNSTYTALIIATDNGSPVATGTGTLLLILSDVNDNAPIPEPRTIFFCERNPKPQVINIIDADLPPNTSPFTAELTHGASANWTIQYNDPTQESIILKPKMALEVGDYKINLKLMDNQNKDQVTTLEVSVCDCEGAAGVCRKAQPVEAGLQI

T3: recombinant CST6 (R&D Systems, Minneapolis, MN), Q15828
T3 chain: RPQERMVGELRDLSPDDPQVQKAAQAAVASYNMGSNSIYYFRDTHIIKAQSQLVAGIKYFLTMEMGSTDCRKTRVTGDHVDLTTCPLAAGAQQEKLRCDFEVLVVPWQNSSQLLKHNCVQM

T4: cathepsin K (Cathepsin K Drug Discovery Kit, Enzo Life Sciences) (UniProt P43235 115-329, limits assumed)
T4 construct: also called CTSK; CatK
T4 sequence (looked up): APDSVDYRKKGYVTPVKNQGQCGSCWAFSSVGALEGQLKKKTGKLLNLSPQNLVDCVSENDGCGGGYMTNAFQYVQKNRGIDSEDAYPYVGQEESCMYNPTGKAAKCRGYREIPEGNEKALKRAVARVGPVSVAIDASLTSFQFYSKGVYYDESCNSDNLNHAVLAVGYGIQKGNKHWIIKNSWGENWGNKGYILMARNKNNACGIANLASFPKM

B1: cathepsin K (Cathepsin K Drug Discovery Kit, Enzo Life Sciences) (protein)
chain: T4 sequence (looked up)
B2: recombinant CST6 (R&D Systems, Minneapolis, MN) (other, UniProt Q15828 29-149, looked up)
chain: T3 chain
notes: also called recombinant cystatin E/M; cystatin M/E

How the values were obtained:
N-cadherin, P19022 = target: T1, N-cadherin, P19022
E-cadherin, P12830 = target: T2, E-cadherin, P12830
[1] = target: T3, recombinant CST6 (R&D Systems, …)
[2] = target: T4, cathepsin K (Cathepsin K Drug Discovery …); assay: inhibition of cathepsin K cleavage of the fluorogenic substrate Z-Phe-Arg-AMC; non-linear regression of initial rates
Method: The ability of recombinant CST6 (R&D Systems, Minneapolis, MN) to inhibit cathepsin K protease activity was assessed using the Cathepsin K Drug Discovery Kit (Enzo Life Sciences International, Plymouth Meeting, PA). Fluorimetric assays were done in triplicate in 96-well microtitre plates using cathepsin K, the fluorogenic synthetic substrate Z-Phe-Arg-AMC in the presence of the cathepsin K assay buffer. Inhibitory activity of CST6 towards cathepsin K was measured in serum-free conditioned media from the H929 cell line stably infected with pWPI or CST6 lentivirus. Conditioned media equating to 25 μg was added to each well and inhibitory activity was evaluated by measuring the residual enzyme activity. Recombinant CST6 was added to assays at various concentrations and the resultant fluorescence was measured using a SpectraMax M2 microplate reader (Molecular Devices, Sunnyvale, CA) with excitation at 380 nm and emission at 460 nm wavelengths. The initial rates from the CatK progress curves in the presence of predetermined concentrations of recombinant CST6 were subjected to non-linear regression analysis (Morrison and Walsh, 1988) using GraFit® software (Erithacus Software Limited, Surrey, UK) to determine the inhibition constant (Ki).

Binder	cleavage of N-cadherin (in vitro assay) (N-cadherin, P19022)	cleavage of E-cadherin (in vitro assay) (E-cadherin, P12830)	cleavage of E- and N-cadherin by cathepsin K (in vitro assay) [1]	Ki [2] [nM]
B1	cathepsin K can cleave E- and N-cadherin using an in vitro assay	cathepsin K can cleave E- and N-cadherin using an in vitro assay	the addition of recombinant Cst6 can inhibit this cleavage	
B2				3.84
